Source: US20210388103A1 (Takeda / Millennium, published 2021)

Experiments:
[1] = target: T1, human CD38 (human, UniProt P28907 1-300); assay: binding to CHO cells expressing human CD38; CHO cells expressing human CD38
T1 construct: In the assays: on CHO-K1 cells transfected with full-length human CD38 cDNA, on human blood lymphocytes, RBCs, cell lines and tissue sections; also called human CD38 antigen

[2] = target: T2, cynomolgus CD38 (cynomolgus monkey, UniProt Q5VAN0 1-301); assay: binding to monkey lymphocytes; method not described; monkey lymphocytes, not CHO cells
T2 construct: In the assays: on CHO-K1 cells transfected with full-length cynomolgus CD38 cDNA, on monkey blood lymphocytes and tissue sections; also called cyno CD38; monkey CD38

[3] = target: T2, cynomolgus CD38; assay: flow cytometry on CHO cells expressing cynomolgus monkey CD38; CHO cells expressing monkey CD38
[4] = target: T2, cynomolgus CD38; assay: cell-based or functional assay

T2 sequence (Q5VAN0 whole entry): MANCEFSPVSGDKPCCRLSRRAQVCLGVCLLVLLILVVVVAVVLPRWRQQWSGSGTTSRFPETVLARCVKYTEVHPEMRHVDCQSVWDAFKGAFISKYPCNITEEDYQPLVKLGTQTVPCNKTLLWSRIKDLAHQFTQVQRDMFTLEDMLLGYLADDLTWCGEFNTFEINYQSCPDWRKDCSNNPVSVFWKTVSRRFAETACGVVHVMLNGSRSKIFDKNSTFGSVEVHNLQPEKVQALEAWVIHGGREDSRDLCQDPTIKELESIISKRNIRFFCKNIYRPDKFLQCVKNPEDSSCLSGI

B1: AB79 (antibody, human IgG1, lambda, V domains shown)
VH: EVQLLESGGGLVQPGGSLRLSCAASGFTFDDYGMSWVRQAPGKGLEWVSDISWNGGKTHYVDSVKGQFTISRDNSKNTLYLQMNSLRAEDTAVYYCARGSLFHDSSGFYFGHWGQGTLVTVSS
VL: QSVLTQPPSASGTPGQRVTISCSGSSSNIGDNYVSWYQQLPGTAPKLLIYRDSQRPSGVPDRFSGSKSGTSASLAISGLRSEDEADYYCQSYDSSLSGSVFGGGTKLTVLG
notes: Fully human IgG1 monoclonal antibody; Used unlabelled, Alexa Fluor conjugated or biotinylated, depending on the assay; also called TAK 079
A Kd [1] of 0.7 nM, a Kd [2] of 4 nM and an EC50 [3] of 4.5 nM were found for B1 in this work. The “cytolysis of NK cells in monkey whole blood in vitro, mean EC50” value [4] was 29.6 nM.
